In US10426871B2, “Nanostructure surface coated medical implants and methods of using the same” (The Regents of the University of California, priority 2007, dated 2019):

How the values were obtained:
[1] = XPS of protein-loaded and protein-adsorbed nanotube surfaces; format: physicochemical; conditions: Adsorbed (control)
Procedure: To evaluate the differences in amounts of protein in nanotubes, X-ray photoelectron spectroscopy (XPS) analysis was carried out. XPS is a surface sensitive technique which can detect changes in surface composition for up to 2-20 atomic layers, depending on the material. Since the nanotubes are approximately 400 nm long, XPS can be used to verify the differences in surface concentrations due to different amounts of BSA and LYS loaded. The loaded nanotube surfaces along with adsorbed surfaces were mounted on an XPS stage. Three spots per sample were analyzed. The analysis was conducted on a SSI S-Probe Monochromatized XPS Spectrometer which uses an Al-Kα-X-ray source (1486.6 eV) with an Omni Focus III small area lens and multichannel detector. A concentric hemispherical analyzer (CHA) was operated in the constant analyzer transmission mode to measure the binding energies of emitted photoelectrons. The binding energy scale was calibrated by the Au4f7/2 peak at 83.9 eV, and the linearity was verified by the Cu3p1/2 and Cu2p3/2 peaks at 76.5 and 932.5 eV respectively. Survey spectra were collected from 0 to 1100 eV with pass energy of 160 eV, and high-resolution C1s spectra were collected for each element detected with pass energy of 10 eV. Survey and high resolution spectra were collected at a 65° take off angle, defined as the angle spanned by the electron path to the analyzer and the sample surface. All spectra were referenced by setting the hydrocarbon C1s peak to 285.0 eV to compensate for residual charging effects. Data for percent atomic composition and atomic ratios were calculated using the manufacturer supplied sensitivity factor.
To evaluate the differences in amounts of protein in nanotubes, X-ray photoelectron spectroscopy (XPS) analysis was carried out. […] LYS and BSA adsorbed surfaces were used as controls. There is a steady increase in N/C ratios with increasing amounts of protein loaded into the nanotubes. A more precise way to characterize protein on the surface is to determine the fraction of C—N and N—C═O peaks in overall C1s peak. The C—N and N—C═O peaks are characteristic of proteins which are at a shift of 0.8 eV and 1.8 eV respectively from the C—C peak (285 eV). Thus, high resolution C1s scans were taken and the peak fit analysis software provided with the XPS instrument was used to determine % of C—N and N—C═O in the overall C1s peak (Table 3). A convolution of Gaussian components was assumed for all the peaks. There is an increase in the intensity for the […], C—N and N—C═O peaks with increasing amounts of proteins loaded into the nanotubes.

[2] = Release of proteins from nanotubes into PBS (Micro-BCA); format: physicochemical; set-up: time point at which all the protein is released from the nanotubes: unit: min; conditions: for time point at which all the protein is released from the nanotubes: PBS, room temperature, 70 rpm
Procedure: In order to release the proteins from the nanotubes, the surfaces were immersed in 500 μl of PBS in a 24-well plate at room temperature with orbital shaking at 70 rpm. 200 μl of samples were taken after specific intervals of time to determine the release kinetics. Samples were collected periodically for up to 120 minutes. The solution was replaced with 200 μl of fresh PBS every time the samples were taken. The samples were analyzed for protein content using a commercially available Micro-BCA assay kit and the concentration was adjusted for dilutions due to replacement of fresh PBS.

[3] = cited from earlier work

Row | Substance | C—C fraction of overall C1s peak (high resolution XPS) [1] | C—N fraction of overall C1s peak (high resolution XPS) [1] | N/C ratio (XPS survey scan) [1] | N—C═O fraction of overall C1s peak (high resolution XPS) [1] | release from the nanotubes compared to that of BSA (in words) [2] | time point at which all the protein is released from the nanotubes ([2]; 200 μg loaded) | time point at which all the protein is released from the nanotubes ([2]; 400 μg loaded) | time point at which all the protein is released from the nanotubes ([2]; 800 μg loaded) | Net charge @ pH 7.0 [3]
1 | Lysozyme: model protein, smaller in size with net positive charge, loaded into titania nanotubes | 0.73 | 0.22 | 0.215 | 0.03 | much slower | 36 | 85 | 110 | +7
2 | Bovine Serum Albumin: model protein, larger molecule with net negative charge, loaded into titania nanotubes | 0.81 | 0.11 | 0.123 | 0.08 | – | 25 | 50 | 65 | −18
